Target: forh_dicdi forH (UniProt Q54N00)
Sequence (Q54N00 whole entry): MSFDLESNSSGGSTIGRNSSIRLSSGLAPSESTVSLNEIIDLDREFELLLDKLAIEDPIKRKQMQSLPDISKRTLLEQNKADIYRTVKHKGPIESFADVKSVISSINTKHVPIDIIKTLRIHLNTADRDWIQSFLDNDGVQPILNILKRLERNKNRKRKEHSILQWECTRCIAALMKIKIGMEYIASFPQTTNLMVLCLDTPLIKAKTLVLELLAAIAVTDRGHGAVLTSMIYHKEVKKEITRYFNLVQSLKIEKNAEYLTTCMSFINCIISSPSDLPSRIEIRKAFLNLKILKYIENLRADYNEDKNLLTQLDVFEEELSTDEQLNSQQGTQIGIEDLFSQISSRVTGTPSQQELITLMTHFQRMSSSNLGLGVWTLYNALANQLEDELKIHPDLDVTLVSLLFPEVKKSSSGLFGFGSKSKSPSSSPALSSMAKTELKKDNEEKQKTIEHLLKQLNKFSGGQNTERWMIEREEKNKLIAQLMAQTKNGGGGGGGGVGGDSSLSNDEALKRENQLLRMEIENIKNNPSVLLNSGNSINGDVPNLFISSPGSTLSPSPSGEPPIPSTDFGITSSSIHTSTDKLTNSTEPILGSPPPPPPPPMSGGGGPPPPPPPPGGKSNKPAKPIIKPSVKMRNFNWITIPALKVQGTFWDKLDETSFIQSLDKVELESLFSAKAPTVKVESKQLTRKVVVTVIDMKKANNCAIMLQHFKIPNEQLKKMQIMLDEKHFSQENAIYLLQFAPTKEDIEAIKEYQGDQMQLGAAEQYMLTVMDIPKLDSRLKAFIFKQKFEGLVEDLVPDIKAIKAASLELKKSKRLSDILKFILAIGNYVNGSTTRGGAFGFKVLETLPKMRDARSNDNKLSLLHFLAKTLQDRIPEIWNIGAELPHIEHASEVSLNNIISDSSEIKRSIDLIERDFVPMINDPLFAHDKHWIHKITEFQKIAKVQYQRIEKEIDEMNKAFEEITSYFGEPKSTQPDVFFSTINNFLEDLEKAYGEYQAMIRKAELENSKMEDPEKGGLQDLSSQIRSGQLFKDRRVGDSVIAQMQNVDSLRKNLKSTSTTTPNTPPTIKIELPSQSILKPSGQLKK

Substance: Rho-related protein rac1A (Dictyostelium discoideum (Slime mold)), P34144 G12V
- effect of a mutation on the interaction: decreasing interaction

Substance: Rho-related protein rac1A (Dictyostelium discoideum (Slime mold)), P34144 T17N
- effect of a mutation on the interaction: disrupting interaction

— IntAct's records for PubMed 15908944
